Here are results for two molecules from publication PMC7205571 (Structure (London, England : 1993), 2020).

The target of one test is monoubiquitin (UniProt P0CG48 1-76). In words: NMR 13C-half-filtered NOESY.
The next test deals with hRpn13 Pru (1–150) (human, UniProt Q16186 1-150, 13C-labelled). Description: NMR structure.

B1: hRpn2-bound hRpn13 (hRpn13 Pru:hRpn2 (940–953) complex) (complex, human)
chain 1: MTTSGALFPSLVPGSRGASNKYLVEFRAGKMSLKGTTVTPDKRKGLVYIQQTDDSLIHFCWKDRTSGNVEDDLIIFPDDCEFKRVPQCPSGRVYVLKFKAGSKRLFFWMQEPKTDQDEEHCRKVNEYLNNPPMPGALGASGSSGHELSAL
chain 2: QEPEPPEPFEYIDD
modifications: 13C-labelled
For B1, the binding result in the test with monoubiquitin is on record as “binds”.

B2: hRpn2 (940–953) (peptide, UniProt Q99460 940-953, looked up)
chain: QEPEPPEPFEYIDD
B2: the binding result with hRpn13 Pru (1–150) was “binds”.
